Legend:
[1] = molecular target: T1, human FcγRIIb extracellular domain with C-terminal His tag (human, UniProt P31994 43-217); assay: SPR (Biacore), ratio of KDs
T1 construct: extracellular domain
T1 sequence (looked up): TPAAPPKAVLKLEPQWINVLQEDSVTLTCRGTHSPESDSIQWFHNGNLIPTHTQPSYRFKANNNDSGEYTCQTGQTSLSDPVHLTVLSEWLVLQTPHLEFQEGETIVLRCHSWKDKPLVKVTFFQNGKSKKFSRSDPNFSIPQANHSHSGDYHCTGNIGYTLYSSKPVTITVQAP

[2] = molecular target: T2, human FcγRIIa type R extracellular domain with C-terminal His tag (human, UniProt P12318 34-217); assay: SPR (Biacore)
T2 construct: extracellular domain; also called FcγRIIaR; FcγRIIa(R)
T2 sequence (looked up): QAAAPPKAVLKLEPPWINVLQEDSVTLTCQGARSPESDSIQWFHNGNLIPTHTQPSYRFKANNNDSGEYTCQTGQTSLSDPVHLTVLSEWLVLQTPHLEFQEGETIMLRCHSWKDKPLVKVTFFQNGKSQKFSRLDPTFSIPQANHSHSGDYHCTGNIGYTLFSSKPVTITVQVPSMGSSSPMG

[3] = molecular target: T3, human FcγRIa extracellular domain with C-terminal His tag (human, UniProt P12314 16-292); assay: SPR (Biacore)
T3 construct: extracellular domain

[4] = molecular target: T1, human FcγRIIb extracellular domain with …; assay: SPR (Biacore)
[5] = molecular target: T2, human FcγRIIa type R extracellular …; assay: SPR (Biacore), parent IL6R-B3/IL6R-L
[6] = molecular target: T1, human FcγRIIb extracellular domain with …; assay: SPR (Biacore), parent IL6R-B3/IL6R-L
[7] = molecular target: T2, human FcγRIIa type R extracellular …; assay: SPR (Biacore); worded summary of Table 28
[8] = molecular target: T1, human FcγRIIb extracellular domain with …; assay: SPR (Biacore); worded summary of Table 28
[9] = molecular target: T4, human FcγRIIb extracellular domain (human, UniProt P31994 43-217); assay: SPR (Biacore), antibody captured on chip, FcγR extracellular domain as analyte, 25 C
T4 construct: also called FcγIIB; not shown: His tag at the C terminus
T4 sequence: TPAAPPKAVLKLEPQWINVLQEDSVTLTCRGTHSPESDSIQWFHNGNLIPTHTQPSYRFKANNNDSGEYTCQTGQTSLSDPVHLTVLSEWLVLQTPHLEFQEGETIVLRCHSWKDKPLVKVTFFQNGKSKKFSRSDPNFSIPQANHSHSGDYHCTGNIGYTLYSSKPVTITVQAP

[10] = molecular target: T5, human FcγRIIa type R extracellular domain (human, UniProt P12318 34-217); assay: as above
T5 construct: also called FcγRIIaR; FcγRIIa(R); not shown: His tag at the C terminus
T5 chain: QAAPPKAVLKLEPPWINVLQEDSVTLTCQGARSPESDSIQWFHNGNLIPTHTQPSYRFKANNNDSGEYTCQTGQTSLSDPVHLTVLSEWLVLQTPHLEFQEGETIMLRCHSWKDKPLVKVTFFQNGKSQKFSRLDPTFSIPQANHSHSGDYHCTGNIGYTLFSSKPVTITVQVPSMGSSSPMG

[11] = molecular target: T6, human FcγRIa extracellular domain (human, UniProt P12314 16-292); assay: as above
T6 construct: also called CD64; not shown: His tag at the C terminus

[12] = molecular target: T4, human FcγRIIb extracellular domain; assay: ratio of the SPR KD for FcγRIIaR to the KD for FcγRIIb (selectivity)
[13] = molecular target: T4, human FcγRIIb extracellular domain; assay: fold against IL6R-B3/IL6R-L, from SPR KD values
[14] = molecular target: T5, human FcγRIIa type R extracellular …; assay: fold against IL6R-B3/IL6R-L, from SPR KD values
[15] = molecular target: T4, human FcγRIIb extracellular domain; assay: ratio of the SPR KD for FcγRIIaH to the KD for FcγRIIb (selectivity)

T6 sequence (P12314 16-292): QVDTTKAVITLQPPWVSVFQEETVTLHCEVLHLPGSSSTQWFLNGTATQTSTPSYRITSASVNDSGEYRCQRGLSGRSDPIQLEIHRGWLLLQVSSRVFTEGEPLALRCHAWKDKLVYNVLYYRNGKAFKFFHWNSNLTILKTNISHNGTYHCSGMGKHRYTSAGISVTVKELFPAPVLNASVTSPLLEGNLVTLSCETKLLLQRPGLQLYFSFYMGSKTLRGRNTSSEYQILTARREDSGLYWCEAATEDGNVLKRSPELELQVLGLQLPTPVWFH
T3 sequence (P12314 16-292): as above

B1: IL6R-BP492/IL6R-L (antibody, human IgG1, kappa)
heavy: QVQLQESGPGLVKPSETLSLTCAVSGHSISHDHAWSWVRQPPGEGLEWIGFISYSGITNYNPSLQGRVTISRDNSKNTLYLQMNSLRAEDTAVYYCARSLARTTAMDYWGEGTLVTVSSASTKGPSVFPLAPSSKSTSGGTAALGCLVKDYFPEPVTVSWNSGALTSGVHTFPAVLQSSGLYSLSSVVTVPSSSLGTQTYICNVNHKPSNTKVDKKVEPKSCDKTHTCPPCPAPELLGGDSVFLFPPKPKDTLMISRTPEVTCVVIDVAEEDGEVKFNWYVDGVEVHNAKTKPREEQYNSTYRVVSVLTVLHQDWLNGKEYKCKVSNKALPAPIEKTISKAKGQPREPQVYTLPPSRDELTKNQVSLTCLVKGFYPSDIAVEWESNGQPENNYKTTPPVLDSDGSFFLYSKLTVDKSRWQQGNVFSCSVMHEALHNHYTQESLSLSP
light: not shown
notes: copies: 2 + 2
- KD(IIaH)/KD(IIb) [1]: 678
- KD(IIaR)/KD(IIb) [1]: 38.8
- Kd [2]: 920 nM
- Kd [3]: 0.79 nM
- Kd [4]: 24 nM
- KD(IIaR) parent/KD(IIaR) altered polypeptide [5]: 1.2
- KD(IIb) parent/KD(IIb) altered polypeptide [6]: 131
- FcγRIIaR binding as compared to IL6R-B3/IL6R-L [7]: ≤ 1.5 times
- FcγRIIb-binding activity as compared to IL6R-B3/IL6R-L [8]: ≥ 100 times

B2: IL6R-BP564/IL6R-L (antibody, human IgG1, kappa)
heavy: QVQLQESGPGLVKPSETLSLTCAVSGHSISHDHAWSWVRQPPGEGLEWIGFISYSGITNYNPSLQGRVTISRDNSKNTLYLQMNSLRAEDTAVYYCARSLARTTAMDYWGEGTLVTVSSASTKGPSVFPLAPSSKSTSGGTAALGCLVKDYFPEPVTVSWNSGALTSGVHTFPAVLQSSGLYSLSSVVTVPSSSLGTQTYICNVNHKPSNTKVDKKVEPKSCDKTHTCPPCPAPELLGDDSVFLFPPKPKDTLMISRTPEVTCVVVDVSEEDGDVKFNWYVDGVEVHNAKTKPREEQDNSTYRVVSVLTVLHQDWLNGKEYKCKVSNKALPRPIEKTISKAKGQPREPQVYTLPPSRDELTKNQVSLTCLVKGFYPSDIAVEWESNGQPENNYKTTPPVLDSDGSFFLYSKLTVDKSRWQQGNVFSCSVMHEALHNHYTQESLSLSP
light: not shown
notes: copies: 2 + 2
- Kd [9]: 22 nM
- Kd [10]: 580 nM
- Kd [11]: 31 nM
- KD(IIaR)/KD(IIb) [12]: 26.2
- KD(IIb) of the parent polypeptide/KD(IIb) of the altered polypeptide [13]: 141
- KD(IIaR) of the parent polypeptide/KD(IIaR) of the altered polypeptide [14]: 1.9
- KD(IIaH)/KD(IIb) [15]: 454

B3: IL6R-BP500/IL6R-L (antibody, human IgG1, kappa)
heavy: QVQLQESGPGLVKPSETLSLTCAVSGHSISHDHAWSWVRQPPGEGLEWIGFISYSGITNYNPSLQGRVTISRDNSKNTLYLQMNSLRAEDTAVYYCARSLARTTAMDYWGEGTLVTVSSASTKGPSVFPLAPSSKSTSGGTAALGCLVKDYFPEPVTVSWNSGALTSGVHTFPAVLQSSGLYSLSSVVTVPSSSLGTQTYICNVNHKPSNTKVDKKVEPKSCDKTHTCPPCPAPELLGDDSVFLFPPKPKDTLMISRTPEVTCVVIDVAEEDGEVKFNWYVDGVEVHNAKTKPREEQDNSTYRVVSVLTVLHQDWLNGKEYKCKVSNKALPAPIEKTISKAKGQPREPQVYTLPPSRDELTKNQVSLTCLVKGFYPSDIAVEWESNGQPENNYKTTPPVLDSDGSFFLYSKLTVDKSRWQQGNVFSCSVMHEALHNHYTQESLSLSP
light: not shown
notes: copies: 2 + 2
- KD(IIaH)/KD(IIb) [1]: 1030
- KD(IIaR)/KD(IIb) [1]: 29.9
- Kd [2]: 720 nM
- Kd [3]: 2.3 nM
- Kd [4]: 24 nM
- KD(IIaR) parent/KD(IIaR) altered polypeptide [5]: 1.5
- KD(IIb) parent/KD(IIb) altered polypeptide [6]: 128
- FcγRIIaR binding as compared to IL6R-B3/IL6R-L [7]: ≤ 1.5 times
- FcγRIIb-binding activity as compared to IL6R-B3/IL6R-L [8]: ≥ 100 times

B4: IL6R-BP562/IL6R-L (antibody, human IgG1, kappa)
heavy: QVQLQESGPGLVKPSETLSLTCAVSGHSISHDHAWSWVRQPPGEGLEWIGFISYSGITNYNPSLQGRVTISRDNSKNTLYLQMNSLRAEDTAVYYCARSLARTTAMDYWGEGTLVTVSSASTKGPSVFPLAPSSKSTSGGTAALGCLVKDYFPEPVTVSWNSGALTSGVHTFPAVLQSSGLYSLSSVVTVPSSSLGTQTYICNVNHKPSNTKVDKKVEPKSCDKTHTCPPCPAPELLGDDSVFLFPPKPKDTLMISRTPEVTCVVVDVSDEDGDVKFNWYVDGVEVHNAKTKPREEQDNSTYRVVSVLTVLHQDWLNGKEYKCKVSNKALPRPIEKTISKAKGQPREPQVYTLPPSRDELTKNQVSLTCLVKGFYPSDIAVEWESNGQPENNYKTTPPVLDSDGSFFLYSKLTVDKSRWQQGNVFSCSVMHEALHNHYTQESLSLSP
light: not shown
notes: copies: 2 + 2
- Kd [9]: 24 nM
- Kd [10]: 680 nM
- Kd [11]: 25 nM
- KD(IIaR)/KD(IIb) [12]: 29
- KD(IIb) of the parent polypeptide/KD(IIb) of the altered polypeptide [13]: 131
- KD(IIaR) of the parent polypeptide/KD(IIaR) of the altered polypeptide [14]: 1.6
- KD(IIaH)/KD(IIb) [15]: 466

B5: IL6R-BP560/IL6R-L (antibody, human IgG1, kappa)
heavy: QVQLQESGPGLVKPSETLSLTCAVSGHSISHDHAWSWVRQPPGEGLEWIGFISYSGITNYNPSLQGRVTISRDNSKNTLYLQMNSLRAEDTAVYYCARSLARTTAMDYWGEGTLVTVSSASTKGPSVFPLAPSSKSTSGGTAALGCLVKDYFPEPVTVSWNSGALTSGVHTFPAVLQSSGLYSLSSVVTVPSSSLGTQTYICNVNHKPSNTKVDKKVEPKSCDKTHTCPPCPAPELLGGDSVFLFPPKPKDTLMISRTPEVTCVVVDVGEEDGEVKFNWYVDGVEVHNAKTKPREEQDNSTYRVVSVLTVLHQDWLNGKEYKCKVSNKALPRPIEKTISKAKGQPREPQVYTLPPSRDELTKNQVSLTCLVKGFYPSDIAVEWESNGQPENNYKTTPPVLDSDGSFFLYSKLTVDKSRWQQGNVFSCSVMHEALHNHYTQESLSLSP
light: not shown
notes: anti-human IL-6 receptor IgG1 variant; copies: 2 + 2
- Kd [9]: 180 nM
- Kd [10]: 4200 nM
- Kd [11]: 5.6 nM
- KD(IIaR)/KD(IIb) [12]: 22.8
- KD(IIb) of the parent polypeptide/KD(IIb) of the altered polypeptide [13]: 16.8
- KD(IIaR) of the parent polypeptide/KD(IIaR) of the altered polypeptide [14]: 0.3
- KD(IIaH)/KD(IIb) [15]: 168

B6: IL6R-BP557/IL6R-L (antibody, human IgG1, kappa)
heavy: QVQLQESGPGLVKPSETLSLTCAVSGHSISHDHAWSWVRQPPGEGLEWIGFISYSGITNYNPSLQGRVTISRDNSKNTLYLQMNSLRAEDTAVYYCARSLARTTAMDYWGEGTLVTVSSASTKGPSVFPLAPSSKSTSGGTAALGCLVKDYFPEPVTVSWNSGALTSGVHTFPAVLQSSGLYSLSSVVTVPSSSLGTQTYICNVNHKPSNTKVDKKVEPKSCDKTHTCPPCPAPELLGDDSVFLFPPKPKDTLMISRTPEVTCVVVDVGDEDGEVKFNWYVDGVEVHNAKTKPREEQDNSTYRVVSVLTVLHQDWLNGKEYKCKVSNKALPRPIEKTISKAKGQPREPQVYTLPPSRDELTKNQVSLTCLVKGFYPSDIAVEWESNGQPENNYKTTPPVLDSDGSFFLYSKLTVDKSRWQQGNVFSCSVMHEALHNHYTQESLSLSP
light: not shown
notes: copies: 2 + 2
- Kd [2]: 850 nM
- Kd [4]: 20 nM
- FcγRIIaR binding as compared to IL6R-B3/IL6R-L [7]: ≤ 1.5 times
- FcγRIIb-binding activity as compared to IL6R-B3/IL6R-L [8]: ≥ 100 times

B7: IL6R-BP493/IL6R-L (antibody, human IgG1, kappa)
heavy: QVQLQESGPGLVKPSETLSLTCAVSGHSISHDHAWSWVRQPPGEGLEWIGFISYSGITNYNPSLQGRVTISRDNSKNTLYLQMNSLRAEDTAVYYCARSLARTTAMDYWGEGTLVTVSSASTKGPSVFPLAPSSKSTSGGTAALGCLVKDYFPEPVTVSWNSGALTSGVHTFPAVLQSSGLYSLSSVVTVPSSSLGTQTYICNVNHKPSNTKVDKKVEPKSCDKTHTCPPCPAPELLGGDSVFLFPPKPKDTLMISRTPEVTCVVIDVAEEDGEVKFNWYVDGVEVHNAKTKPREEQDNSTYRVVSVLTVLHQDWLNGKEYKCKVSNKALPAPIEKTISKAKGQPREPQVYTLPPSRDELTKNQVSLTCLVKGFYPSDIAVEWESNGQPENNYKTTPPVLDSDGSFFLYSKLTVDKSRWQQGNVFSCSVMHEALHNHYTQESLSLSP
light: not shown
notes: copies: 2 + 2
- Kd [3]: 0.82 nM
- Kd [4]: 21 nM
- FcγRIIaR binding as compared to IL6R-B3/IL6R-L [7]: ≤ 1.5 times
- FcγRIIb-binding activity as compared to IL6R-B3/IL6R-L [8]: ≥ 100 times

Source: patent publication US20220389118A1 (Chugai, published 2022)
